The nature of data set [1]: SEC; Agilent Bio SEC-3 column, 25 °C, 50 mM sodium phosphate, 150 mM KCl, 10% isopropanol, pH 6.8; samples at 1 mg/ml; fluorescence detection; percentages from peak areas. Background: In gel filtration, larger molecules generally elute earlier.
Data set [2] concerns the target Fc gamma receptor IIa (human (endogenous in moDCs)) (UniProt P12318).
Data set [3] addresses macrophage mannose receptor (CD206) (human (endogenous in moDCs)) (UniProt P22897).
The target in data set [4] is UV-stressed (aggregated) infliximab. Kind of data set: SEC; Agilent Bio SEC-3 column, 25 °C, 50 mM sodium phosphate, 150 mM KCl, 10% isopropanol, pH 6.8; samples at 1 mg/ml; fluorescence detection; percentages from peak areas.
Data set [5] has the same target. As to the kind of experiment: FFF-MALS; asymmetric flow field flow fractionation (Eclipse AF4) with UV, MALS and dRI detectors; mobile phase 0.01 M monopotassium phosphate, 0.0027 M potassium chloride, 0.137 M sodium chloride.

“And” between values parts separate entries of the source, which are not always exact repeats. Identical values can stand only once.

Sequence of UniProt P22897 (P22897 19-1456): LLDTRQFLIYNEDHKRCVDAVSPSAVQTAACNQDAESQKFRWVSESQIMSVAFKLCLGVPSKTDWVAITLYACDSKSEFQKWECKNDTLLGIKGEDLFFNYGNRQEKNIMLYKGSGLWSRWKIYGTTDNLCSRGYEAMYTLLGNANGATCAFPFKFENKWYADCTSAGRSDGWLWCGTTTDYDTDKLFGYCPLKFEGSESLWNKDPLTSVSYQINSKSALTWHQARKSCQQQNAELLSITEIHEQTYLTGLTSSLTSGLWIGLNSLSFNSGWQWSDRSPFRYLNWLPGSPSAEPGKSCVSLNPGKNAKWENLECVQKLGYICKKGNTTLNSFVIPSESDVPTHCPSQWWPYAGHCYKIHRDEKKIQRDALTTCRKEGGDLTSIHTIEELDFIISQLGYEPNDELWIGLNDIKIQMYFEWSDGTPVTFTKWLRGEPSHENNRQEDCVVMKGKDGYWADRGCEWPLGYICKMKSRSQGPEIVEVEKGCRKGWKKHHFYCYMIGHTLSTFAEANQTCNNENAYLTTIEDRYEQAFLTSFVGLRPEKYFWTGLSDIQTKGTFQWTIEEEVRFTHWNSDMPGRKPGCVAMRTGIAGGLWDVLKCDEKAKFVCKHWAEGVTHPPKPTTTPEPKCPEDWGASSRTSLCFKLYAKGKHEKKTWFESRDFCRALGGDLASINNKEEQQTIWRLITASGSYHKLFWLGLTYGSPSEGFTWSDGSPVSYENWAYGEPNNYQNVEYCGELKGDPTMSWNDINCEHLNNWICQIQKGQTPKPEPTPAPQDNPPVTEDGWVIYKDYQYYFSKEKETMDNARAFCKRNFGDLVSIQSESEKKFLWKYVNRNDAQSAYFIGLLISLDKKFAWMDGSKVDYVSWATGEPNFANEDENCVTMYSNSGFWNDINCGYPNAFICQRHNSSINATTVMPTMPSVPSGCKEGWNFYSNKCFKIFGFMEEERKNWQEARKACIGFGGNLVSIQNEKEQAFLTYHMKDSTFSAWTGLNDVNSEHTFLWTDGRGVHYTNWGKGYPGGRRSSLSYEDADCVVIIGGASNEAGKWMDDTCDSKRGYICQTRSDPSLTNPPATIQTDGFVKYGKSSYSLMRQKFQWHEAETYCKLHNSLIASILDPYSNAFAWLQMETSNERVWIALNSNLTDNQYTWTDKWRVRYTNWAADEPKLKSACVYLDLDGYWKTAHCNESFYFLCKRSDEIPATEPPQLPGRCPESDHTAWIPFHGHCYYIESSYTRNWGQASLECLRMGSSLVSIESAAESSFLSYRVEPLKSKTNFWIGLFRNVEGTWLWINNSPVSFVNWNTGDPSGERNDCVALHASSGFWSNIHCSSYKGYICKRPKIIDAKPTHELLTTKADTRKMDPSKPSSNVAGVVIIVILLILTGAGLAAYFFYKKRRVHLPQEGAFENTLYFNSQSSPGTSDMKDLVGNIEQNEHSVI
Sequence of UniProt P12318 (P12318 34-317): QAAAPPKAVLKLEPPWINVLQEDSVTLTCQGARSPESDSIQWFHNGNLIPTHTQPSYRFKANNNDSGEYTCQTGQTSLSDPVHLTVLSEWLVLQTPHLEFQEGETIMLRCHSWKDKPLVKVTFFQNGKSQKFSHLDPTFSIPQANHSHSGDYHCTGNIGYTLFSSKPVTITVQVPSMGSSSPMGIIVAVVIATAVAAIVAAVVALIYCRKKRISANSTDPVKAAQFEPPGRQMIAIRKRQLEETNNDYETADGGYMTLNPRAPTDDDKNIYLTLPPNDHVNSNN

As for UV-stressed (aggregated) infliximab, in data set [1], the “percent of dimers (ratio of SEC peak areas)” value is 19.27% ± 0.24% dimers and the “percent of trimers (ratio of SEC peak areas)” value is 26.19% ± 3.95 trimers.
For “UV-stressed (aggregated) infliximab (antibody)”, the reduction of the uptake of AF-488 IFX UV by moDCs after pre-treatment with anti-FcγRIIa Ab (1 µg/ml) in data set [2] is 19%. For the same substance, in data set [3], the inhibition of the internalization rate of AF-488 IFX UV by moDCs (flow cytometry, 37 °C minus 4 °C) after pre-treatment with anti-CD206 IgG (10 µg/ml) was 39% and the inhibition of the percentage of moDCs internalizing AF-488 IFX UV after pre-treatment with anti-CD206 IgG (10 µg/ml) worked out at 32%. In addition, in data set [4], the stoichiometry N is 2 and 3. In data set [5], the percent of dimers (FFF-MALS) amounted to 22.4%; the percent of trimers and oligomers (FFF-MALS) was determined as 24.7%.

As usually defined, the stoichiometry N is the number of molecules, sites or subunits per partner or assembly.
